This assay has as its target T1, Human IL-17A (human, UniProt Q16552 24-155).
T1 construct: also called Interleukin-17; CTLA-8
T1 sequence (looked up): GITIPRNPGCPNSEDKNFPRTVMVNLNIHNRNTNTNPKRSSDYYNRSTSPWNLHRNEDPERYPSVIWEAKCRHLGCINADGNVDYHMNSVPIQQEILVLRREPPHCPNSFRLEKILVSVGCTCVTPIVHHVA
Description: fluorescence polarisation competition, 75 nM human IL-17A, 1 nM tracer BCY13196 as competitor, mean of n=3, Cheng Prusoff fit. On the procedure:
Affinity determination by fluorescence polarization (FP) competition. Bicycles were screened to determine affinity (Ki) in a fluorescence polarisation assay where in competition with a bicycle labelled with fluorescein (referred to as tracer) with a known affinity for IL-17A. Peptides were diluted to an appropriate concentration in assay buffer (PBS+0.01% Tween20, adjusted to pH7.4 using NaOH (1M)) with a maximum of 1% DMSO, then serially diluted 1 in 2 into assay buffer. Into black 384-well low volume plates, […] of diluted peptide was added to the plate followed by […] of IL-17A at a fixed concentration (75 nM IL-17A for tracer BCY13196, 50 nM IL-17A for tracer BCY13351), then […] tracer added to a final concentration of 1 nM. Measurements were conducted on a BMG PHERAstar FS equipped with an “FP 485 520 520” optic module which excites at 485 nm and detects parallel and perpendicular emission at 520 nm. The PHERAstar FS was set at 25° C. with 200 flashes per well and a positioning delay of 0.1 second, with each well measured at 5 to 10 minute intervals for 60 minutes. The gain used for measurements was determined at the point of experiment on a tracer alone well. […]
Selected peptide ligands of the invention were tested in the above mentioned IL-17A human fluorescence polarization (FP) competition assay and the results are shown in Table 1: […]

Numbered stars: 1 amine (or outer) side, 2 acyl side, 3 side chain; on linkers, the order of the positions; unused ones are H or OH. Bridge positions count the residues as written; N and C are the ends. Ends that are not written are not given here. TAST = 1,4,7-tris(vinylsulfonyl)-1,4,7-triazonane scaffold, O=S(=O)(CC[*:1])N1CCN(S(=O)(=O)CC[*:2])CCN(S(=O)(=O)CC[*:3])CC1

Usually Ki stands for a dissociation constant, usually derived from enzyme kinetics or from competition with a known ligand.

B1: BCY13059 (peptide)
peptide: ACPQDLELCTFLFGDCA
modifications: linker 2-9-16 via TAST
notes: Synthetic bicyclic peptide cyclised on TAST
Take B1: the inhibitory constant (Ki) came to 313 nM.

These data come from patent publication US20230041661A1 (Bicycle, published 2023).
